# Data from PMC3368898.
# How the values were obtained:
# Test in all cases: […]; 10 mM Tris pH 7.4, 150 mM NaCl, 1 mM EDTA
# [1] = target: Col–PfC fragment, endogenous proteolytic fragment of rEPclA with only the Col and PfC domains (Escherichia coli O157:H7 strain RIMD 0509952 (Sakai))
# [2] = target: PfC domain of EPclA (residues 363-426) after removal of thioredoxin by thrombin
# [3] = target: PfN–PCoil fragment of EPclA (residues 1-250)
# [4] = target: Trx–PfC, PfC domain of EPclA (residues 363-426) fused to thioredoxin
substance,measurement,setting,value
"Col–PfC fragment, endogenous proteolytic fragment of rEPclA with only the Col and PfC domains (domain or fragment)",stoichiometry N,[1],3
PfC domain of EPclA (residues 363-426) after removal of thioredoxin by thrombin (domain or fragment),stoichiometry N,[2],3
PfN–PCoil fragment of EPclA (residues 1-250) (domain or fragment),stoichiometry N,[3],3
"Trx–PfC, PfC domain of EPclA (residues 363-426) fused to thioredoxin (domain or fragment)",stoichiometry N,[4],3
